Measurements published in the supplement of paper PMC10266784.

B1: library; numbered along this chain (parent)
chain: MAAAAAAAAEQQSSNGPVKKSMREKAVERRSVNKEHNSNFKAGYIPIDEDRLHKTGLRGRKGNLAICVIILLFILAVINLIITLVIWAVIRIGPNGCDSMEFHESGLLRFKQVSDMGVIHPLYKSTVGGRRNENLVITGNNQPIVFQQGTTKLSVENNKTSITSDIGMQFFDPRTQNILFSTDYETHEFHLPSGVKSLNVQKASTERITSNATSDLNIKVDGRAIVRGNEGVFIMGKTIEFHMGGNMELKAENSIILNGSVMVSTTRLPSSSSGDQLGSGDWVRYKLCMCADGTLFKVQVTSQNMGCQISDNPCGNTH

Variants of: B1
Test: SGCB cell-surface expression functional score (HA stain, bin4 vs bin1, normalised to synonymous) (log10 ratio); higher = more cell-surface SGCB (functional)
In short: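 HEK293 cells stably expressing alpha-, gamma- and delta-sarcoglycan received codon-saturation libraries of HA-tagged, YFP-fused human beta-sarcoglycan by lentiviral transduction at MOI <0.1, performed in duplicate. Cells positive for YFP were sorted after 72 hours and cultured for 5–7 days, then stained on ice with Alexa Fluor 647 anti-HA and fixed. Fixed cells were sorted into four 5% intensity bins and amplicon-sequenced, and the log ratio of highest-bin to lowest-bin variant frequency, as a median over codons and transductions, gives the functional score. Per section, synonymous variants were scaled to mean 0, SD 0.5.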

| Variant | SGCB cell-surface expression functional score (log10) |
| --- | --- |
| R131C | 0.15 |
| P143E | -0.73 |
| G139E | -0.91 |
| T205Y | -1.37 |
| N95A | 0.01 |
| G96M | -1.68 |
| I239K | -1.38 |
| V85L | 0.24 |
| S210C | -0.17 |
| D98R | -0.16 |
| I119M | 0.58 |
| V226C | 0.33 |
| S264N | -0.3 |
| F110S | -1.18 |
| S270E | -0.45 |
| H36R | -0.04 |
| Y285Q | -0.54 |
| S154K | 0.55 |
| A291M | -2.2 |
| E248Y | 0.41 |
| R223D | 0.48 |
| G278H | -0.29 |
| V113L | -0.01 |
| A5T | 0.22 |

| Variant | SGCB cell-surface expression functional score (log10) |
| --- | --- |
| Q142I | -0.41 |
| M116Q | -1.26 |
| S273W | 0.09 |
| E101K | -0.77 |
| L64N | 0.28 |
| F40P | -0.13 |
| A212N | -0.89 |
| I256K | 0.15 |
| A291D | -0.71 |
| V155A | -0.56 |
| I86L | -0.35 |
| L75T | 0.27 |
| I309S | 0.1 |
| K54T | 0.27 |
| Q142T | -0.17 |
| I74W | 0.64 |
| I81C | -0.06 |
| I178R | -0.26 |
| P17R | -0.12 |
| Q142S | 0.05 |
| R91H | 0 |
| M116C | -1.02 |
| A2H | 0.34 |
| M243V | 0.49 |

| Variant | SGCB cell-surface expression functional score (log10) |
| --- | --- |
| I178C | -0.6 |
| Q169G | -1.16 |
| S272P | 0.21 |
| T182Y | -2.23 |
| K34S | 0.52 |
| R91M | -1.94 |
| V200K | -2.94 |
| Q303T | -0.46 |
| R29Q | 0.16 |
| E133A | -0.35 |
| V155Y | -1.9 |
| E185L | -0.11 |
| R29G | 0.3 |
| P269W | 0.56 |
| G280K | 0.07 |
| D115W | -1.77 |
| S264A | 0.51 |
| T182G | -1.06 |
| S161K | -0.33 |
| Y44G | 0.59 |
| C288S | -0.07 |
| A2D | -0.07 |
| F170C | -0.28 |
| E206Q | -0.93 |

| Variant | SGCB cell-surface expression functional score (log10) |
| --- | --- |
| S273V | -0.79 |
| C288A | -0.03 |
| M235L | 0.66 |
| P173I | -0.68 |
| M235C | 0.86 |
| P143A | -0.21 |
| K219C | 0.59 |
| D183N | -0.15 |
| I90R | -0.63 |
| R207N | -0.12 |
| G244E | 0.47 |
| A42L | -0.02 |
| R29T | -0.04 |
| K159F | -0.25 |
| L268A | 0.63 |
| G129P | 0.12 |
| P269R | 0.75 |
| V226Q | -0.68 |
| N312K | 0.25 |
| E10C | 0.47 |
| T238K | 0.3 |
| L135I | -0.47 |
| K237F | 0.86 |
| W87D | 0.08 |

| Variant | SGCB cell-surface expression functional score (log10) |
| --- | --- |
| M305D | -0.25 |
| S31A | -0.25 |
| K61R | -0.23 |
| G228P | -1.47 |
| T126Y | 0.74 |
| E185D | 0.34 |
| G244K | 0.23 |
| R267K | 0.76 |
| D98S | 0.3 |
| L179I | -0.73 |
| N199V | 0.22 |
| F233G | -0.1 |
| S125M | 0.21 |
| L191H | -1.37 |
| N316T | 0.37 |
| V145E | -0.03 |
| L191Y | -1.61 |
| S161A | 0.29 |
| F296R | -0.46 |
| W87K | 0.25 |
| G236M | -2.18 |
| M100V | -0.03 |
| N246D | 0.51 |
| K250I | 1 |

| Variant | SGCB cell-surface expression functional score (log10) |
| --- | --- |
| L84K | 0.18 |
| L64A | -0.31 |
| G129N | -0.81 |
| D165V | 0.5 |
| P313N | 0.01 |
| R109Y | -0.17 |
| S105W | 0.26 |
| H242Y | 0.47 |
| A291T | 0.17 |
| L295K | -0.07 |
| N304H | 0.26 |
| T205W | -2.65 |
| N158M | -0.12 |
| H36C | -0.16 |
| H36Q | 0.22 |
| V113K | 0.32 |
| V200P | -1.16 |
| I256F | 0.01 |
| T175A | 0.26 |
| R284T | -0.97 |
| A203C | 0.38 |
| I92E | -2.15 |
| A212D | 0.56 |
| G139W | -0.74 |

| Variant | SGCB cell-surface expression functional score (log10) |
| --- | --- |
| V27T | 0.04 |
| K111Q | -1 |
| G56L | 0.23 |
| G149R | -0.54 |
| K54H | -0.42 |
| N134R | -0.6 |
| H120A | -0.12 |
| R58K | -0.66 |
| N158Q | 0.06 |
| K286T | -1.08 |
| E49H | -0.23 |
| Y44R | 0.08 |
| L84W | 0.4 |
| S302T | -1.04 |
| D98E | -0.21 |
| N229H | 1.03 |
| A4K | -0.03 |
| S21N | 0.32 |
| C307H | -0.89 |
| V200A | -0.04 |
| P46M | 0 |
| I82M | -0.24 |
| T266H | 0.55 |
